Assay results taken from patent US6896884B2, “Human chitinase, its recombinant production, its use for decomposing chitin, its use in therapy or prophylaxis against infection diseases” (Universiteit va Amsterdam, priority 1995, dated 2005).

Key:
[1] = rat, in vivo
Text: A prerequisite for the intravenous application of the chitinase is insight in its clearance. In the blood stream the most predominant isozyme is the 50 kDa protein. In tissue predominantly a 39 kDa isozyme is encountered. This appears to be formed by uptake of 50 kDa protein followed by proteolytic cleavage to a 39 kDa form that is remarkably stable in the lysosomal environment. […] Clearance is not a very rapid process as monitored by the disappearance of activity of human chitotriosidase in the blood stream of intravenously injected rats, the half life being about one hour. Only minor amounts of chitotriosidase are daily excreted into the urine. It is conceivable that some enzyme is efficiently recaptured by proximal tube epithelial cells since kidney is found to be extremely rich in ‘lysosomally processed’ 39 kDa enzyme.

Mucor mucedo = assay: fungicidal effect on hyphal growth; assay type: cell-based; details: for effect on hyphal growth, microscopical analysis: enzyme solution in 0.15 M NaCl pipetted on hyphal tips
Experimental: To test whether human chitotriosidase can exert an antifungal action, a chitinous fungus (Mucor mucedo) was grown on plates (containing malt extract, peptone, glucose and agar) under a Cellophane membrane in order to keep the hyphae flat against the agar surface (see ref.16). Individual sectors were cut out and mounted on microscope slides. Purified chitozyme 50 and chitozyme 39 were dialysed against 0.15 M sodium chloride. Samples of enzyme-containing solutions, and 0.15 M NaCl were pipetted on the hyphal tips. […] Application of saline had no effect. Negative effects on hyphal growth were detectable using chitozyme solutions with a concentration of enzyme as little as 0.005 mg/ml.

[2] = assay type: in vitro ADME
Experimental: Production of the chitozymes via conventional technology in insect cells, plant cells, or vertebrate cells should be possible. Finally, transgenic animals could be envisioned as producers of large quantities of chitozymes in their milk for the applications described above. […] Successful proteolytic cleavage is only accomplished after denaturation of the enzyme, e.g. after heating in the presence of sodium dodecylsulphate. […] In analogy, chitotriosidase is stable at 37° C. in macrophage-conditioned medium that contains large quantities of various other secreted lytic enzymes.

[3] = assay type: physicochemical
[4] = chitin azure degradation (release of soluble azure at 550 nm); assay type: biochemical; details: chitin azure 10 mg/ml, citrate/phosphate buffer pH 5.2; control chitinase from Serratia marcescens
Experimental: Chitin azure (Sigma) suspended in citrate/phosphate buffer (pH 5.2) at a final concentration of 10 mg/ml was used to monitor chitinase activity. Chitin degradation was detected spectrophotometrically at 550 nm by determination of release of soluble azure (18). Chitinase from Serratia marcescens (Sigma) was used as control. […] See for example ref.18.

[5] = system: cell wall suspension of Micrococcus lysodeikticus; assay: lysozyme activity towards bacterial cell wall suspension; assay type: biochemical
[6] = hydrolysis of 4-methylumbelliferyl-chitobioside versus 4-methylumbelliferyl-chitotrioside; assay type: biochemical; details: 4-methylumbelliferyl substrates
Text: Purified 50 kDa and 39 kDa tissue chitotriosidases, and 50 kDa and 39 kDa chitozymes produced by recombinant DNA technology, are able to hydrolyse 4-methylumbelliferyl-chitotrioside and 4-methylumbelliferyl-chitobioside, the ratio of chitobioside activity to chitotrioside activity being about 0.7. Furthermore, p-nitrophenyl-chitotrioside and p-nitrophenyl-chitobioside are also efficiently hydrolyzed.

a variety of proteases = assay type: in vitro ADME
Experimental: Successful proteolytic cleavage is only accomplished after denaturation of the enzyme, e.g. after heating in the presence of sodium dodecylsulphate. […] In analogy, chitotriosidase is stable at 37° C. in macrophage-conditioned medium that contains large quantities of various other secreted lytic enzymes.

Row | Substance | clearance from the circulation [1] | ratio of chitobioside activity to chitotrioside activity [6] | stability against a variety of proteases (a variety of proteases) | effect on hyphal growth, microscopical analysis (Mucor mucedo) | further results
1 | tissue chitotriosidase: chitotriosidase purified from Gaucher disease spleen, isoform not specified | not immediately cleared | – | – | – | –
2 | chitotriosidase: human chitinase produced by macrophages, named chitotriosidase; isoform not specified at the place | – | – | – | – | effect on fungal growth (Mucor mucedo; Mucor species): inhibited growth; loss of enzyme activity on prolonged incubation [2]: does not result in detectable loss of enzyme activity; stability in macrophage-conditioned medium [2]: stable; enzyme activity after spotting on filter paper ([3]; storage for several days at room temperature): enzyme activity is still recovered; loss of enzyme activity upon storage and freeze-thaw ([3]; −20 or −70° C., repeated cycles of freezing and thawing): No loss of enzyme activity; chitinase activity, related to hydrolysis of 4-methyl-umbelliferyl-chitotrioside [4]: comparable to that of the bacterial chitinase; activity towards Micrococcus lysodeikticus cell wall suspension (lysozyme activity) [5]: No significant activity
3 | 50 kDa tissue chitotriosidase: 50 kDa chitotriosidase purified from Gaucher disease spleen | – | about 0.7 | – | – | –
4 | chitozyme: recombinant chitotriosidase, isozyme not specified at the place | – | – | – | – | stability when added to cow milk [2]: completely stable
5 | chitozyme 50: recombinant human chitotriosidase isozyme of 50 kDa, encoded by chi.50 cDNA (SEQ ID NO:4), produced by transfected COS cells | not immediately cleared | about 0.7 | extremely stable | immediate cessation of hyphal growth | half life in the circulation, compared between isozymes [1]: somewhat longer than that of the 39 kDa enzyme
6 | chitozyme 39: recombinant human chitotriosidase isozyme of 39 kDa, encoded by chi.39 cDNA (SEQ ID NO:6), produced by transfected COS cells | not immediately cleared | about 0.7 | extremely stable | immediate cessation of hyphal growth | –
